Target: human IGF-1R (human) (UniProt P08069)
Assay: cell-based or functional assay

human IGF-1R (human), sequence (P08069 31-1367): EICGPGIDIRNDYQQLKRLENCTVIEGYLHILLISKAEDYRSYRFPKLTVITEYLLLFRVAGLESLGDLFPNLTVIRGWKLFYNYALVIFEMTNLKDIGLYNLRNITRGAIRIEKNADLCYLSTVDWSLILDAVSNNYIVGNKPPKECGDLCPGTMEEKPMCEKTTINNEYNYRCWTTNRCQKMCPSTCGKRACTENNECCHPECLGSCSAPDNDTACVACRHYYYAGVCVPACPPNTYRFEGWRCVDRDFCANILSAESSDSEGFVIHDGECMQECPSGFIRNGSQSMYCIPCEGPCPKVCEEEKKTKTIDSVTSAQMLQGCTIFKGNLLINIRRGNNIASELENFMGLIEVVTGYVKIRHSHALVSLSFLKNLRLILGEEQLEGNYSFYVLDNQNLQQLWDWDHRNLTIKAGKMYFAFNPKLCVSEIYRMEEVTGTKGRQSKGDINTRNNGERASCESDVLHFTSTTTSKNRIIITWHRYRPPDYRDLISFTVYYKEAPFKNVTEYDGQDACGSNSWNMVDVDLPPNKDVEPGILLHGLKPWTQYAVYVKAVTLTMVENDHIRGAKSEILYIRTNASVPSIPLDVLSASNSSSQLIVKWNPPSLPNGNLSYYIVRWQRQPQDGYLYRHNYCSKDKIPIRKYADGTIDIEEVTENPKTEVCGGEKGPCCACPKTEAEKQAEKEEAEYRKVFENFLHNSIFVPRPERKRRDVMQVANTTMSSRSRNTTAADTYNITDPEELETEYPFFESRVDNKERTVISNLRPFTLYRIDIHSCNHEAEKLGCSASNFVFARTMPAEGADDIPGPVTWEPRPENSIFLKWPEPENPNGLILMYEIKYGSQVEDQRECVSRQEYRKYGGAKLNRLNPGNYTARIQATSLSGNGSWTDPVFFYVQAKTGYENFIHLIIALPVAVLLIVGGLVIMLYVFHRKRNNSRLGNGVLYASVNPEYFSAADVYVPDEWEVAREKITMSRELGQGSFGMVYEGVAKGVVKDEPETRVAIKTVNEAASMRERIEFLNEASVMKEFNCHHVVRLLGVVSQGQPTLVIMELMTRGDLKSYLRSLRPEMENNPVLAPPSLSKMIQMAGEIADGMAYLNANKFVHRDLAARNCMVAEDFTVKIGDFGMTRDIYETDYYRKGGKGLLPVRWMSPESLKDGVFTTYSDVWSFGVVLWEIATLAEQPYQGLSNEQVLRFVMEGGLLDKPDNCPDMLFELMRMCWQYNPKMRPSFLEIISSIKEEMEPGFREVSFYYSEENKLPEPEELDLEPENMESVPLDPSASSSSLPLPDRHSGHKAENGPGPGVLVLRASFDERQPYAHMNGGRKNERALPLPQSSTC

% Remaining Phosphorylation at 15 µg/mL (100 nM) Inhibitor, IGF-1 (20 ng/mL) induced IGF-1R phosphorylation: 35% | % Remaining Phosphorylation at 15 µg/mL (100 nM) Inhibitor, IGF-2 (100 ng/mL) induced IGF-1R phosphorylation: 76% | % Remaining Phosphorylation at 15 µg/mL (100 nM) Inhibitor, human serum (20%) induced IGF-1R phosphorylation: 120% | IC50, IGF-1 (20 ng/mL) induced IGF-1R phosphorylation, cell-based ELISA: 1.16 µg/mL | IC50, IGF-2 (100 ng/mL) induced IGF-1R phosphorylation, cell-based ELISA: > 15 µg/mL | IC50, human serum (20%) induced IGF-1R phosphorylation, cell-based ELISA: > 15 µg/mL
Substance: IGF-1R antibody αIR3 (Calbiochem, No. GR11L)
